# Laboratory results taken from article PMC7959842 (2021).
# Target: C3b (UniProt P01024 749-1663; P01024 749-1663, biotin (EZ-Link Maleimide-PEG2-Biotin, after 1 mM DTT) where immobilised on streptavidin chips; none where amine-coupled)
# Assay: SPR; biotin-coupled C3b
# C3b, sequence (P01024 23-667, chain 1 of 2): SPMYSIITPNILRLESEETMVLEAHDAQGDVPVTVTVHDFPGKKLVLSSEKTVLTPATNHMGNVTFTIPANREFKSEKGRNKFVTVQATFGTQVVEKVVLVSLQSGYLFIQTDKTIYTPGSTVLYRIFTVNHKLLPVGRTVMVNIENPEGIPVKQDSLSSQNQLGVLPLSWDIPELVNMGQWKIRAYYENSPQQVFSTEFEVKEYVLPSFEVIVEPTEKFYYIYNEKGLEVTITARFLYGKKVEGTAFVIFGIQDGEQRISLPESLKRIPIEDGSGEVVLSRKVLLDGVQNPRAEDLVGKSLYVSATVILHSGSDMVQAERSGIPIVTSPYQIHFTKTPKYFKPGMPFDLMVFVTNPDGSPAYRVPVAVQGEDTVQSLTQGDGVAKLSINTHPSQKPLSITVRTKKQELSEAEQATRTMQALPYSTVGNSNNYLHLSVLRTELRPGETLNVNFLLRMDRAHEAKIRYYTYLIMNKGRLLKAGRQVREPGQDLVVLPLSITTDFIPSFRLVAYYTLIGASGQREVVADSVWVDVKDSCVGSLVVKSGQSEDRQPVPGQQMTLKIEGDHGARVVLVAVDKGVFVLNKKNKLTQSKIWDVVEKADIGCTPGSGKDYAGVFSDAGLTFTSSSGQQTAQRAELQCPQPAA
# C3b, sequence (P01024 749-1663, chain 2 of 2): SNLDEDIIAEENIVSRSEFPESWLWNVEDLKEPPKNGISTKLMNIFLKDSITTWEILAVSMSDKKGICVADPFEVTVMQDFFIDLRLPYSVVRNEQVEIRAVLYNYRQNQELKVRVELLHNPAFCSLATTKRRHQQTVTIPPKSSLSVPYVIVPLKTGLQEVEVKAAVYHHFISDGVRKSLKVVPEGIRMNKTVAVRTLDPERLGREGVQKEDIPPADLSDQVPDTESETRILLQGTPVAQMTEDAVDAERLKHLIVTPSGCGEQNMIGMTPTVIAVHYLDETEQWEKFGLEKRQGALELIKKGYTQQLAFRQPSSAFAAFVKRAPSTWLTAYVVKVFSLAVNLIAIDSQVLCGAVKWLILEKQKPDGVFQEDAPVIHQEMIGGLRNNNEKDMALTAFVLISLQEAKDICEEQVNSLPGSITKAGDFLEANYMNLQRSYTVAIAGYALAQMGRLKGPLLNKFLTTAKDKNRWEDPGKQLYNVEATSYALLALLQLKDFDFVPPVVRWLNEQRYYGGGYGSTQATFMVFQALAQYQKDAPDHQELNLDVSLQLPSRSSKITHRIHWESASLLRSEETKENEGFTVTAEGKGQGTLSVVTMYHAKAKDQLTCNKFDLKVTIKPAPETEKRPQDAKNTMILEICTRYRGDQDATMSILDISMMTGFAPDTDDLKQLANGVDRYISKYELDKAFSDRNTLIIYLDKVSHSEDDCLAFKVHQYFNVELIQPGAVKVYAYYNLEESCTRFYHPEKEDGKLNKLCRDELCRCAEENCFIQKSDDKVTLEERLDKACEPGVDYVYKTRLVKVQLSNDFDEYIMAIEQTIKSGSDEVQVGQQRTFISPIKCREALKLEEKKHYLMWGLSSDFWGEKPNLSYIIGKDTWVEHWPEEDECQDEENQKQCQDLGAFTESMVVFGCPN
row,Kd [µM],Binder
1,9.9,FH18-20 (domain or fragment) TSCVNPPTVQNAYIVSRQMSKYPSGERVRYQCRSPYEMFGDEEVMCLNGNWTEPPQCKDSTGKCGPPPPIDNGDITSFPLSVYAPASSVEYQCQNLYQLEGNKRITCRNGQWSEPPKCLHPCVISREIMENYNIALRWTAKQKLYSRTGESVEFVCKRGYRLSSRSHTLRTTCWDGKLEYPTCAKR
2,5.6,FH18-20(LV) (domain or fragment) TSCVNPPTVQNAYIVSRQMSKYPSGERVRYQCRSPYEMFGDEEVMCLNGNWTEPPQCKDSTGKCGPPPPIDNGDITSFPLSVYAPASSVEYQCQNLYQLEGNKRITCRNGQWSEPPKCLHPCVISREIMENYNIALRWTAKQKLYLRTGESVEFVCKRGYRLSSRSHTLRTTCWDGKLEYPTCAKR
3,10,FH18-20(SA) (domain or fragment) TSCVNPPTVQNAYIVSRQMSKYPSGERVRYQCRSPYEMFGDEEVMCLNGNWTEPPQCKDSTGKCGPPPPIDNGDITSFPLSVYAPASSVEYQCQNLYQLEGNKRITCRNGQWSEPPKCLHPCVISREIMENYNIALRWTAKQKLYSRTGESAEFVCKRGYRLSSRSHTLRTTCWDGKLEYPTCAKR
4,5.8,FH18-20(LA) (domain or fragment) TSCVNPPTVQNAYIVSRQMSKYPSGERVRYQCRSPYEMFGDEEVMCLNGNWTEPPQCKDSTGKCGPPPPIDNGDITSFPLSVYAPASSVEYQCQNLYQLEGNKRITCRNGQWSEPPKCLHPCVISREIMENYNIALRWTAKQKLYLRTGESAEFVCKRGYRLSSRSHTLRTTCWDGKLEYPTCAKR
5,0.6,"FHR-1 (factor H-related protein 1, FHR-1*B, wild-type) (natural protein) EATFCDFPKINHGILYDEEKYKPFSQVPTGEVFYYSCEYNFVSPSKSFWTRITCTEEGWSPTPKCLRLCFFPFVENGHSESSGQTHLEGDTVQIICNTGYRLQNNENNISCVERGWSTPPKCRSTDTSCVNPPTVQNAYIVSRQMSKYPSGERVRYQCRSPYEMFGDEEVMCLNGNWTEPPQCKDSTGKCGPPPPIDNGDITSFPLSVYAPASSVEYQCQNLYQLEGNKRITCRNGQWSEPPKCLHPCVISREIMENYNIALRWTAKQKLYLRTGESAEFVCKRGYRLSSRSHTLRTTCWDGKLEYPTCAKR"
